Assay results as given in publication PMC3834833 (Nucleic Acids Research, 2013).
Values joined by “and” are separate entries in the source; they are usually repeats but may differ in a detail not shown here. Equal values may be shown once.

B1: translin variant Nt-1 (I6A/F7A) (natural protein, human, UniProt Q15631 1-228, looked up)
chain: MSVSEAAVELQGFLAAEQDIREEIRKVVQSLEQTAREILTLLQGVHQGAGFQDIPKRCLKAREHFGTVKTHLTSLKTKFPAEQYYRFHEHWRFVLQRLVFLAAFVVYLETETLVTREAVTEILGIEPDREKGFHLDVEDYLSGVLILASELSRLSVNSVTAGDYSRPLHISTFINELDSGFRLLNLKNDSLRKRYDGLKYDVKKVEEVVYDLSIRGFNKETAAACVEK
notes: translin, human; mutant of the pQE-9 translin plasmid made by QuikChange site-directed mutagenesis; Same construct as m1 with the stated substitutions; also called N-terminal 1; source: E. coli, purified

Assays:
[1] = target: the molecule itself; assay: glycerol gradient centrifugation; 10 ml linear 20-40% (v/v) glycerol gradient, 10 mM Tris-HCl pH 8.0, 100 mM NaCl, 1 mM EDTA, 2 mM DTT; SW-41 rotor, 38 000 rpm, 24 h, 8°C; fractions by SDS-PAGE and Coomassie; S value and molecular weight by comparison with protein markers; major oligomeric state
translin (wild type) = translin (wild type) (Homo sapiens, UniProt Q15631 1-228); assay: SAXS; translin octamer:RNA 1:1.5; Rg 47.2 vs 48.4 A free; SAXS: 10 mM Tris-HCl pH 8.0, 100 mM NaCl, 0.1 mM EDTA, 1 mM DTT, 5% glycerol; complex incubated 20 min at 25 C, measured at 10 C; conditions: protein: recombinant; tags: N-terminal His6 (pQE-9); chain copies: 8; single strand

Binder	stoichiometry N [1]	binding result (translin (wild type))
B1	4 subunits and 3.9 subunits	–
GUGUGUGUGUGUGUGUGUGUGUGU (ssRNA) [(GU)12]	–	binds
